Measurements from patent US20180172684A1.

How the values were obtained:
[1] = target: mycoplasma pneumonia P30 (purified protein P30Ag produced by expressing amino acids 96-274 with Escherichia coli) (Mycoplasma pneumoniae) (UniProt P75330); assay: immunochromatography sandwich (Ex. 3), label P30(a), detection P30(a); analyte P30Ag; Triton X-100/Tween 20 diluent
[2] = target: P30 protein of Mycoplasma pneumoniae as present in Mycoplasma pneumoniae analytes (deactivated Mycoplasma pneumoniae Antigen (FH), Meridian; pharyngeal swabs of infected subjects) (Mycoplasma pneumoniae) (UniProt P75330); assay: immunochromatography sandwich (Ex. 2), label P30(a), detection P30(a); deactivated Mycoplasma pneumoniae (FH); Triton X-100/Tween 20 diluent
[3] = target: P30 protein of Mycoplasma pneumoniae as present in Mycoplasma pneumoniae analytes (deactivated Mycoplasma pneumoniae Antigen (FH), Meridian; pharyngeal swabs of infected subjects) (Mycoplasma pneumoniae) (UniProt P75330); assay: immunochromatography sandwich (Ex. 1), label P30(a), detection P30(a); pharyngeal swab Subject 1, diluted 20 times
[4] = target: P30 protein of Mycoplasma pneumoniae as present in Mycoplasma pneumoniae analytes (deactivated Mycoplasma pneumoniae Antigen (FH), Meridian; pharyngeal swabs of infected subjects) (Mycoplasma pneumoniae) (UniProt P75330); assay: immunochromatography sandwich (Ex. 2), label P30(a), detection P30(a); pharyngeal swab Subject 1; Triton X-100/Tween 20 diluent
[5] = target: mycoplasma pneumonia P30 (purified protein P30Ag produced by expressing amino acids 96-274 with Escherichia coli) (Mycoplasma pneumoniae) (UniProt P75330); assay: ELISA, P30Ag coated at 4 ng/mL, antibody 5 ug/mL, anti-mouse IgG-peroxidase
[6] = target: full-length protein mycoplasma pneumonia P30 (amino acids 1-274; SEQ ID NO: 1) (Mycoplasma pneumoniae) (UniProt P75330); assay: ELISA, full-length P30 coated, 5 ug/mL P30(a), no peptide (0 point of the peptide 1 series)
[7] = target: P30 protein of Mycoplasma pneumoniae as present in Mycoplasma pneumoniae analytes (deactivated Mycoplasma pneumoniae Antigen (FH), Meridian; pharyngeal swabs of infected subjects) (Mycoplasma pneumoniae) (UniProt P75330); assay: immunochromatography sandwich (Ex. 2), label P30(a), detection P30(a); pharyngeal swab Subject 2; Triton X-100/Tween 20 diluent
[8] = target: mycoplasma pneumonia P30 (purified protein P30Ag produced by expressing amino acids 96-274 with Escherichia coli) (Mycoplasma pneumoniae) (UniProt P75330); assay: immunochromatography sandwich, P30(a)-gold label and P30(a) detection line, P30Ag 10 pg/mL, no peptide
[9] = target: P30 protein of Mycoplasma pneumoniae as present in Mycoplasma pneumoniae analytes (deactivated Mycoplasma pneumoniae Antigen (FH), Meridian; pharyngeal swabs of infected subjects) (Mycoplasma pneumoniae) (UniProt P75330); assay: immunochromatography sandwich (Ex. 1), label P30(a), detection P30(a); deactivated Mycoplasma pneumoniae (FH); NP-40/MN-811 diluent
[10] = target: P30 protein of Mycoplasma pneumoniae as present in Mycoplasma pneumoniae analytes (deactivated Mycoplasma pneumoniae Antigen (FH), Meridian; pharyngeal swabs of infected subjects) (Mycoplasma pneumoniae) (UniProt P75330); assay: immunochromatography sandwich (Ex. 1), label P30(a), detection P30(a); pharyngeal swab Subject 2, diluted 20 times
[11] = target: full-length protein mycoplasma pneumonia P30 (amino acids 1-274; SEQ ID NO: 1) (Mycoplasma pneumoniae) (UniProt P75330); assay: ELISA, full-length P30 coated, 5 ug/mL P30(a), no peptide (0 point of the peptide 2 series)
[12] = target: antibody P30(a) (Fucal Research product Mp-P30-3-AB); assay: competitive inhibition ELISA, full-length P30 coated at 4 ng/mL, 5 ug/mL P30(a) + peptide 2 at 40 times the antibody amount
[13] = target: antibody P30(a) (Fucal Research product Mp-P30-3-AB); assay: competitive inhibition ELISA, full-length P30 coated, 5 ug/mL P30(a) + peptide 2 at x10 the antibody concentration
[14] = target: antibody P30(a) (Fucal Research product Mp-P30-3-AB); assay: competitive inhibition ELISA, full-length P30 coated, 5 ug/mL P30(a) + peptide 2 at x20 the antibody concentration
[15] = target: antibody P30(b) (Fucal Research product Mp-P30-9-AB); assay: competitive inhibition ELISA, full-length P30 coated, 5 ug/mL P30(b) + peptide 2 at x640 the antibody concentration
[16] = target: antibody P30(a) (Fucal Research product Mp-P30-3-AB); assay: competitive inhibition ELISA, full-length P30 coated, 5 ug/mL P30(a) + peptide 2 at x160 the antibody concentration
[17] = target: antibody P30(b) (Fucal Research product Mp-P30-9-AB); assay: competitive inhibition ELISA, full-length P30 coated, 5 ug/mL P30(b) + peptide 2 at x320 the antibody concentration
[18] = target: antibody P30(b) (Fucal Research product Mp-P30-9-AB); assay: competitive inhibition ELISA, full-length P30 coated, 5 ug/mL P30(b) + peptide 2 at x1 the antibody concentration
[19] = target: antibody P30(b) (Fucal Research product Mp-P30-9-AB); assay: competitive inhibition ELISA, full-length P30 coated, 5 ug/mL P30(b) + peptide 2 at x10 the antibody concentration
[20] = target: antibody P30(b) (Fucal Research product Mp-P30-9-AB); assay: competitive inhibition ELISA, full-length P30 coated, 5 ug/mL P30(b) + peptide 2 at x160 the antibody concentration
[21] = target: antibody P30(b) (Fucal Research product Mp-P30-9-AB); assay: competitive inhibition ELISA, full-length P30 coated, 5 ug/mL P30(b) + peptide 2 at x80 the antibody concentration
[22] = target: antibody P30(a) (Fucal Research product Mp-P30-3-AB); assay: competitive inhibition ELISA, full-length P30 coated, 5 ug/mL P30(a) + peptide 2 at x640 the antibody concentration
[23] = target: antibody P30(b) (Fucal Research product Mp-P30-9-AB); assay: competitive inhibition ELISA, full-length P30 coated at 10 ng/mL, 5 ug/mL P30(b) + peptide 2 at 40 times the antibody amount
[24] = target: antibody P30(b) (Fucal Research product Mp-P30-9-AB); assay: competitive inhibition ELISA, full-length P30 coated, 5 ug/mL P30(b) + peptide 2 at x40 the antibody concentration
[25] = target: antibody P30(a) (Fucal Research product Mp-P30-3-AB); assay: immunochromatography competition, 400 ng peptide 2 developed with P30Ag 10 pg/mL, P30(a) label and detection
[26] = target: antibody P30(b) (Fucal Research product Mp-P30-9-AB); assay: competitive inhibition ELISA, full-length P30 coated, 5 ug/mL P30(b) + peptide 2 at x20 the antibody concentration
[27] = target: antibody P30(a) (Fucal Research product Mp-P30-3-AB); assay: competitive inhibition ELISA, full-length P30 coated, 5 ug/mL P30(a) + peptide 2 at x320 the antibody concentration
[28] = target: antibody P30(a) (Fucal Research product Mp-P30-3-AB); assay: competitive inhibition ELISA, full-length P30 coated, 5 ug/mL P30(a) + peptide 2 at x80 the antibody concentration
[29] = target: antibody P30(a) (Fucal Research product Mp-P30-3-AB); assay: competitive inhibition ELISA, full-length P30 coated, 5 ug/mL P30(a) + peptide 2 at x40 the antibody concentration
[30] = target: antibody P30(a) (Fucal Research product Mp-P30-3-AB); assay: competitive inhibition ELISA, full-length P30 coated, 5 ug/mL P30(a) + peptide 2 at x1 the antibody concentration
[31] = target: antibody P30(b) (Fucal Research product Mp-P30-9-AB); assay: immunochromatography competition, 400 ng peptide 2 developed with P30Ag 10 pg/mL, P30(b) label and detection

antibody P30(a) (Fucal Research product Mp-P30-3-AB)
Color intensity (mAbs) [1]: 180 mAbs
Color intensity (mAbs) [2]: 490 mAbs
Color intensity (mAbs) [3]: 41.8 mAbs
Color intensity (mAbs) [4]: 117 mAbs
absorbance at 450 nm after subtracting the blank [5]: 0.403 Abs
Color intensity (Abs) [6]: 0.411 Abs
Color intensity (mAbs) [7]: 51.7 mAbs
Color intensity after 15 min [8]: 251 mAbs
Color intensity (mAbs) [9]: 273 mAbs
Color intensity (mAbs) [10]: 28.7 mAbs
Color intensity (Abs) [11]: 0.411 Abs

PGMAPRPGFPPQPGMAPR [Peptide 2 (SEQ ID NO: 7: …)]
percentage reduction of absorbance [12]: > 30%
Color intensity (Abs) [13]: 0.341 Abs
Percentage reduction of color intensity (%) [13]: 17%
Color intensity (Abs) [14]: 0.29 Abs
Percentage reduction of color intensity (%) [14]: 29%
Color intensity (Abs) [15]: 0.114 Abs
Percentage reduction of color intensity (%) [15]: 45%
Color intensity (Abs) [16]: 0.172 Abs
Percentage reduction of color intensity (%) [16]: 58%
Color intensity (Abs) [17]: 0.11 Abs
Percentage reduction of color intensity (%) [17]: 47%
Color intensity (Abs) [18]: 0.199 Abs
Percentage reduction of color intensity (%) [18]: 4%
Color intensity (Abs) [19]: 0.184 Abs
Percentage reduction of color intensity (%) [19]: 12%
Color intensity (Abs) [20]: 0.125 Abs
Percentage reduction of color intensity (%) [20]: 40%
Color intensity (Abs) [21]: 0.133 Abs
Percentage reduction of color intensity (%) [21]: 36%
Color intensity (Abs) [22]: 0.18 Abs
Percentage reduction of color intensity (%) [22]: 56%
percentage reduction of absorbance [23]: 22%
Color intensity (Abs) [24]: 0.163 Abs
Percentage reduction of color intensity (%) [24]: 22%
Color intensity after 15 min [25]: 96.7 mAbs
Color intensity (Abs) [26]: 0.186 Abs
Percentage reduction of color intensity (%) [26]: 11%
Color intensity (Abs) [27]: 0.16 Abs
Percentage reduction of color intensity (%) [27]: 61%
Color intensity (Abs) [28]: 0.199 Abs
Percentage reduction of color intensity (%) [28]: 52%
Color intensity (Abs) [29]: 0.26 Abs
Percentage reduction of color intensity (%) [29]: 37%
Color intensity (Abs) [30]: 0.401 Abs
Percentage reduction of color intensity (%) [30]: 2%
Color intensity after 15 min [31]: 31.3 mAbs
